Assay [1] deals with T1, recombinant human C1q protein (Fitzgerald) (human, UniProt P02745 23-245; P02746 28-253; P02747 29-245, limits assumed).
T1 construct: also called human recombinant complement protein, C1q
Description: ELISA; test protein immobilised in serial dilution, recombinant human C1q added, anti-C1q-HRP.

Assay [2] concerns the target T2, human FLT3 on AML5 cells (human, UniProt P36888 27-993).
T2 sequence (looked up): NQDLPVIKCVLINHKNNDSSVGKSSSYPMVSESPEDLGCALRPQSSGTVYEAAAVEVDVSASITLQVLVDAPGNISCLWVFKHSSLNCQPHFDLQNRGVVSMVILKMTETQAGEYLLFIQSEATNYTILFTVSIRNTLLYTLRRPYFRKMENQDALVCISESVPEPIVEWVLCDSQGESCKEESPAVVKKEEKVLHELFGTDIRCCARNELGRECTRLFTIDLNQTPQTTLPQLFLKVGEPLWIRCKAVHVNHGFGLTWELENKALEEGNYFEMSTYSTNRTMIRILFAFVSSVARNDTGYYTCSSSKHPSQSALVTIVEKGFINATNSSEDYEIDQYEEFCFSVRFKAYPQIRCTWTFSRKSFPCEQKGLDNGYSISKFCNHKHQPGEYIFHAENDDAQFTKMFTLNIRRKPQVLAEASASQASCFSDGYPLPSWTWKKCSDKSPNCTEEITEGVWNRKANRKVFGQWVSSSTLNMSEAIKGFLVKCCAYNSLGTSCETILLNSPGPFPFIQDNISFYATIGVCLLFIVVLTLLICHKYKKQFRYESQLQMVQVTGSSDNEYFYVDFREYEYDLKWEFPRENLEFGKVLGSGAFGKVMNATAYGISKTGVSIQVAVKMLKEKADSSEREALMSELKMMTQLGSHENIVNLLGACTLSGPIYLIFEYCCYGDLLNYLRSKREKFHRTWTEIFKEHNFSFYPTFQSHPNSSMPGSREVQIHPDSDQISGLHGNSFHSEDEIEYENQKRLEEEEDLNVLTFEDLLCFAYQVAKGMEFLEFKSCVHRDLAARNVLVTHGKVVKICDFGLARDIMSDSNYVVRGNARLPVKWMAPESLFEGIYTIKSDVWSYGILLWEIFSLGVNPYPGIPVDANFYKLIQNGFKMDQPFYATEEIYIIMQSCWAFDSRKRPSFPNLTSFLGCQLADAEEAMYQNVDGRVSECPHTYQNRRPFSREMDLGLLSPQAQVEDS
In words: cell-based or functional assay.

Assay [3] has as its target T2, human FLT3 on AML5 cells. In words: cell-based or functional assay. The source holds these as a separate data set.
Assay [4] concerns the target T1, recombinant human C1q protein …. Description: ELISA; test protein immobilised in serial dilution, recombinant human C1q added, anti-C1q-HRP. This is another data set of the same source.
In assay [5] the target is T2, human FLT3 on AML5 cells. Description: cell-based or functional assay. The source holds these as a separate data set.
In assay [6] the target is T2, human FLT3 on AML5 cells. Description: cell-based or functional assay. This is another data set of the same source.
In assay [7] the target is T2, human FLT3 on AML5 cells. In words: cell-based or functional assay. This is another data set of the same source.

Substitutions are numbered along the chain they refer to. In names and notes the source's numbering stands. Read-outs that look alike come from different tables or passages of the source.

T1 sequence (P02745 23-245 limits assumed, chain 1 of 3): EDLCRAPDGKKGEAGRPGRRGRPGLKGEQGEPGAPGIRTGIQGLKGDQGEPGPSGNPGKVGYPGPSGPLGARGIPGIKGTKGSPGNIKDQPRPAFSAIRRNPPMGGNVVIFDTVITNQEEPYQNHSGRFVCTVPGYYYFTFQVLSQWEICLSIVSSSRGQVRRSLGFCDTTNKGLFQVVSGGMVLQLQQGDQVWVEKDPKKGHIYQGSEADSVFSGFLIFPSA
T1 sequence (P02746 28-253 limits assumed, chain 2 of 3): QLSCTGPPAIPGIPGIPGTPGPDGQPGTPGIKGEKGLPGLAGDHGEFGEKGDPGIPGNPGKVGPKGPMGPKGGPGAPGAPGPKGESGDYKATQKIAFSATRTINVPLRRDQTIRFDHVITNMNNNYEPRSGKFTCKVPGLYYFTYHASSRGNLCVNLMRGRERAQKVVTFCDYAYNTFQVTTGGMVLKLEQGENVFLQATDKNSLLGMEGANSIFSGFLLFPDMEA
T1 sequence (P02747 29-245 limits assumed, chain 3 of 3): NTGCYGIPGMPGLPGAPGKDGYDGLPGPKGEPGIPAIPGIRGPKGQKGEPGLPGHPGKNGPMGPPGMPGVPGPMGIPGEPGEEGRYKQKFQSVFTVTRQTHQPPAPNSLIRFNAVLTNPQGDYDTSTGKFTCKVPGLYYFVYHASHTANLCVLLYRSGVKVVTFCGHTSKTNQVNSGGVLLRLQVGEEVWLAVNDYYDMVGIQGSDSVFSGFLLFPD

B1: human FLT3-ligand (Δ10 amino acid) human hingeless IgG1 fusion protein (SEQ ID NO:7) (Fc fusion)
chain: TQDCSFQHSPISSDFAVKIRELSDYLLQDYPVTVASNLQDEELCGGLWRLVLAQRWMERLKTVAGSKMQGLLERVNTEIHFVTKCAFQPPPSCLRFVQTNISRLLQETSEQLVALKPWITRQNFSRCLELQCQPDSSTLPPPWSPRPGGPSVFLFPPKPKDTLMISRTPEVTCVVVDVSHEDPEVKFNWYVDGVEVHNAKTKPREEQYNSTYRVVSVLTVLHQDWLNGKEYKCKVSNKALPAPIEKTISKAKGQPREPQVYTLPPSREEMTKNQVSLTCLVKGFYPSDIAVEWESNGQPENNYKTTPPVLDSDGSFFLYSKLTVDKSRWQQGNVFSCSVMHEALHNHYTQKSLSLSPGK
Regarding B1, the binding result in assay [1] was “no binding (tested: 94 nM (top of the titration))”. Further, the “EC50 (nM), AML5 Proliferation Assay” value in assay [2] was found to be 0.071 nM.

B2: human FLT3-ligand (Δ5 amino acid) human IgG4 (S228P/F234A/L235A/M252Y/S254T/T256E) fusion protein (SEQ ID NO:14) (Fc fusion)
chain: TQDCSFQHSPISSDFAVKIRELSDYLLQDYPVTVASNLQDEELCGGLWRLVLAQRWMERLKTVAGSKMQGLLERVNTEIHFVTKCAFQPPPSCLRFVQTNISRLLQETSEQLVALKPWITRQNFSRCLELQCQPDSSTLPPPWSPRPLEATAESKYGPPCPPCPAPEAAGGPSVFLFPPKPKDTLYITREPEVTCVVVDVSQEDPEVQFNWYVDGVEVHNAKTKPREEQFNSTYRVVSVLTVLHQDWLNGKEYKCKVSNKGLPSSIEKTISKAKGQPREPQVYTLPPSQEEMTKNQVSLTCLVKGFYPSDIAVEWESNGQPENNYKTTPPVLDSDGSFFLYSRLTVDKSRWQEGNVFSCSVMHEALHNHYTQKSLSLSLGK
notes: also called FLT3L ECD (Δ C-term 5aa (PTAPQ))-hG4 (S228P/F234A/L235A/M252Y/S254T/T256E)
As for B2, in assay [3], the “EC50 (nM), AML5 Proliferation Assay” value is 0.046 nM. The binding result in assay [4] is recorded as “no binding (tested: 94 nM (top of the titration))”.

B3: human FLT3-ligand (Δ5 amino acid) human hingeless IgG1 fusion protein (SEQ ID NO:2) (Fc fusion)
chain: TQDCSFQHSPISSDFAVKIRELSDYLLQDYPVTVASNLQDEELCGGLWRLVLAQRWMERLKTVAGSKMQGLLERVNTEIHFVTKCAFQPPPSCLRFVQTNISRLLQETSEQLVALKPWITRQNFSRCLELQCQPDSSTLPPPWSPRPLEATAGGPSVFLFPPKPKDTLMISRTPEVTCVVVDVSHEDPEVKFNWYVDGVEVHNAKTKPREEQYNSTYRVVSVLTVLHQDWLNGKEYKCKVSNKALPAPIEKTISKAKGQPREPQVYTLPPSREEMTKNQVSLTCLVKGFYPSDIAVEWESNGQPENNYKTTPPVLDSDGSFFLYSKLTVDKSRWQQGNVFSCSVMHEALHNHYTQKSLSLSPGK
notes: also called FLT3L ECD (Δ C-term 5aa (PTAPQ))-hingeless hG1
With B3, the binding result in assay [1] is “no binding (tested: 94 nM (top of the titration))”. Besides, the “EC50 (nM), AML5 Proliferation Assay” value in assay [2] is 0.083 nM.

B4: human FLT3-ligand human hingeless IgG1 fusion protein (SEQ ID NO:1) (Fc fusion)
chain: TQDCSFQHSPISSDFAVKIRELSDYLLQDYPVTVASNLQDEELCGGLWRLVLAQRWMERLKTVAGSKMQGLLERVNTEIHFVTKCAFQPPPSCLRFVQTNISRLLQETSEQLVALKPWITRQNFSRCLELQCQPDSSTLPPPWSPRPLEATAPTAPQGGPSVFLFPPKPKDTLMISRTPEVTCVVVDVSHEDPEVKFNWYVDGVEVHNAKTKPREEQYNSTYRVVSVLTVLHQDWLNGKEYKCKVSNKALPAPIEKTISKAKGQPREPQVYTLPPSREEMTKNQVSLTCLVKGFYPSDIAVEWESNGQPENNYKTTPPVLDSDGSFFLYSKLTVDKSRWQQGNVFSCSVMHEALHNHYTQKSLSLSPGK
notes: Made in Expi293 or ExpiCHO; also called FLT3L ECD-hingeless hG1; hFLT3L ECD
Turning to B4, in assay [1], the binding result is listed as “no binding (tested: 94 nM (top of the titration))”. Moreover, the “EC50 (nM), Inducing Proliferation of AML5 Cells” value in assay [5] stood at 0.078 nM; in assay [6], 0.034 nM; in assay [7], 0.04 nM. Moreover, the “EC50 (nM), AML5 Proliferation Assay” value in assay [2] worked out at 0.08 nM; in assay [3], 0.05 nM.

B5: human FLT3-ligand human hingeless IgG1 (M252Y/S254T/T256E) fusion protein (SEQ ID NO:9) (Fc fusion)
chain: B4 chain with M174Y, S176T, T178E
notes: also called FLT3L ECD-hingeless hG1 (M252Y/S254T/T256E)
As to B5, the “EC50 (nM), AML5 Proliferation Assay” value in assay [3] is 0.037 nM. The binding result in assay [4] is given as “no binding (tested: 94 nM (top of the titration))”.

B6: human FLT3-ligand (S128A/S151A) human hingeless IgG1 fusion protein (SEQ ID NO:5) (Fc fusion)
chain: B4 chain with S102A, S125A
notes: also called Aglyco-FLT3L ECD (S128A/S151A) hingeless hG1
Take B6: the binding result in assay [1] was “no binding (tested: 94 nM (top of the titration))”. Besides, the “EC50 (nM), AML5 Proliferation Assay” value in assay [2] turned out to be 0.078 nM.

The values are drawn from patent US20220049021A1 (Gilead, published 2022).
